# According to the supplement of paper PMC9112550, “Optimization of the antimicrobial peptide Bac7 by deep mutational scanning” (BMC Biology, 2022):
# Tested on: Escherichia coli TOP10
# Test: shrunken log2 fold change of peptide-encoding DNA abundance (4.5 h post-induction vs induction); higher = less antimicrobial activity (less host growth inhibition)
# Conditions: time post-induction: 4.5 h; library: site-saturation at positions 5, 18, 19, 20
# 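Further: peptides expressed intracellularly from a pBAD plasmid library in pooled LB shake-flask culture, induced with 0.3% L-arabinose, DNA abundance read by NGS, three biological replicates, DESeq2 with apeglm shrinkage.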
row,Sequence,shrunken log2 fold change
1,RRIRMRPPRLPRPRPRPATDPRP,0.843
2,RRIRMRPPRLPRPRPRPATFPRP,0.376
3,RRIRMRPPRLPRPRPRPAWKPRP,0.14
4,RRIRMRPPRLPRPRPRPAWYPRP,0.177
5,RRIRMRPPRLPRPRPRPCASPRP,0.0954
6,RRIRMRPPRLPRPRPRPCAWPRP,0.513
7,RRIRMRPPRLPRPRPRPCCHPRP,0.0146
8,RRIRMRPPRLPRPRPRPCCSPRP,0.0205
9,RRIRMRPPRLPRPRPRPCDEPRP,0.877
10,RRIRMRPPRLPRPRPRPCEPPRP,0.234
11,RRIRMRPPRLPRPRPRPCFTPRP,-0.123
12,RRIRMRPPRLPRPRPRPCGAPRP,1.15
13,RRIRMRPPRLPRPRPRPCGKPRP,0.0716
14,RRIRMRPPRLPRPRPRPCIFPRP,0.0107
15,RRIRMRPPRLPRPRPRPCIIPRP,-0.798
16,RRIRMRPPRLPRPRPRPCKKPRP,0.106
17,RRIRMRPPRLPRPRPRPCKPPRP,-0.173
18,RRIRMRPPRLPRPRPRPCKRPRP,0.00656
19,RRIRMRPPRLPRPRPRPCLFPRP,-0.155
20,RRIRMRPPRLPRPRPRPCLIPRP,-0.0342
21,RRIRMRPPRLPRPRPRPCLPPRP,0.154
22,RRIRMRPPRLPRPRPRPCMTPRP,1.65
23,RRIRMRPPRLPRPRPRPCMVPRP,-0.417
24,RRIRMRPPRLPRPRPRPCNIPRP,0.0653
25,RRIRMRPPRLPRPRPRPCPHPRP,0.0961

row,Sequence,shrunken log2 fold change
1,RRIRMRPPRLPRPRPRPCQFPRP,0.0126
2,RRIRMRPPRLPRPRPRPCQNPRP,0.0761
3,RRIRMRPPRLPRPRPRPCREPRP,-0.126
4,RRIRMRPPRLPRPRPRPCTKPRP,2.28
5,RRIRMRPPRLPRPRPRPCTRPRP,-0.0828
6,RRIRMRPPRLPRPRPRPCVVPRP,-0.0402
7,RRIRMRPPRLPRPRPRPCWMPRP,0.114
8,RRIRMRPPRLPRPRPRPDETPRP,0.103
9,RRIRMRPPRLPRPRPRPDEVPRP,0.00989
10,RRIRMRPPRLPRPRPRPDFHPRP,-0.129
11,RRIRMRPPRLPRPRPRPDGEPRP,0.857
12,RRIRMRPPRLPRPRPRPDGLPRP,0.143
13,RRIRMRPPRLPRPRPRPDHVPRP,-0.0107
14,RRIRMRPPRLPRPRPRPDLKPRP,0.751
15,RRIRMRPPRLPRPRPRPDLTPRP,0.869
16,RRIRMRPPRLPRPRPRPDLWPRP,2.21
17,RRIRMRPPRLPRPRPRPDMLPRP,0.0647
18,RRIRMRPPRLPRPRPRPDMVPRP,1.9
19,RRIRMRPPRLPRPRPRPDNDPRP,1.41
20,RRIRMRPPRLPRPRPRPDPGPRP,0.46
21,RRIRMRPPRLPRPRPRPDPIPRP,-0.249
22,RRIRMRPPRLPRPRPRPDRRPRP,-0.0127
23,RRIRMRPPRLPRPRPRPDRYPRP,-0.0269
24,RRIRMRPPRLPRPRPRPDVKPRP,0.343
25,RRIRMRPPRLPRPRPRPDVNPRP,0.0361

row,Sequence,shrunken log2 fold change
1,RRIRMRPPRLPRPRPRPDWIPRP,-0.017
2,RRIRMRPPRLPRPRPRPDWKPRP,0.0125
3,RRIRMRPPRLPRPRPRPEAIPRP,2.54
4,RRIRMRPPRLPRPRPRPEAVPRP,3.72
5,RRIRMRPPRLPRPRPRPEDPPRP,1.02
6,RRIRMRPPRLPRPRPRPEEFPRP,0.0141
7,RRIRMRPPRLPRPRPRPEEHPRP,2.85
8,RRIRMRPPRLPRPRPRPEFNPRP,0.301
9,RRIRMRPPRLPRPRPRPEFYPRP,-0.056
10,RRIRMRPPRLPRPRPRPEHHPRP,0.323
11,RRIRMRPPRLPRPRPRPEHRPRP,0.0887
12,RRIRMRPPRLPRPRPRPEIPPRP,0.497
13,RRIRMRPPRLPRPRPRPEKYPRP,0.746
14,RRIRMRPPRLPRPRPRPELVPRP,0.0445
15,RRIRMRPPRLPRPRPRPENEPRP,2.96
16,RRIRMRPPRLPRPRPRPENPPRP,2.79
17,RRIRMRPPRLPRPRPRPENQPRP,1.86
18,RRIRMRPPRLPRPRPRPENRPRP,0.247
19,RRIRMRPPRLPRPRPRPEPNPRP,2.18
20,RRIRMRPPRLPRPRPRPEQMPRP,2.44
21,RRIRMRPPRLPRPRPRPERCPRP,0.201
22,RRIRMRPPRLPRPRPRPERDPRP,2.25
23,RRIRMRPPRLPRPRPRPETHPRP,2.51
24,RRIRMRPPRLPRPRPRPFAFPRP,0.0579
25,RRIRMRPPRLPRPRPRPFCAPRP,0.358

row,Sequence,shrunken log2 fold change
1,RRIRMRPPRLPRPRPRPFCMPRP,-0.33
2,RRIRMRPPRLPRPRPRPFCTPRP,-0.0819
3,RRIRMRPPRLPRPRPRPFENPRP,0.00631
4,RRIRMRPPRLPRPRPRPFERPRP,0.122
5,RRIRMRPPRLPRPRPRPFGEPRP,0.0461
6,RRIRMRPPRLPRPRPRPFIDPRP,-0.438
7,RRIRMRPPRLPRPRPRPFMMPRP,-0.113
8,RRIRMRPPRLPRPRPRPFNSPRP,-0.326
9,RRIRMRPPRLPRPRPRPFNYPRP,-0.559
10,RRIRMRPPRLPRPRPRPFPMPRP,0.237
11,RRIRMRPPRLPRPRPRPFQHPRP,0.0658
12,RRIRMRPPRLPRPRPRPFSCPRP,-0.115
13,RRIRMRPPRLPRPRPRPFSEPRP,0.273
14,RRIRMRPPRLPRPRPRPFSHPRP,0.0882
15,RRIRMRPPRLPRPRPRPFSYPRP,-0.029
16,RRIRMRPPRLPRPRPRPFTCPRP,-0.173
17,RRIRMRPPRLPRPRPRPFTDPRP,0.174
18,RRIRMRPPRLPRPRPRPFTVPRP,-0.00884
19,RRIRMRPPRLPRPRPRPFTYPRP,-0.0802
20,RRIRMRPPRLPRPRPRPFYQPRP,-0.297
21,RRIRMRPPRLPRPRPRPFYTPRP,-0.364
22,RRIRMRPPRLPRPRPRPGAPPRP,1.31
23,RRIRMRPPRLPRPRPRPGFGPRP,0.904
24,RRIRMRPPRLPRPRPRPGHKPRP,-0.231
25,RRIRMRPPRLPRPRPRPGIEPRP,2.2

row,Sequence,shrunken log2 fold change
1,RRIRMRPPRLPRPRPRPGIRPRP,0.253
2,RRIRMRPPRLPRPRPRPGKEPRP,0.137
3,RRIRMRPPRLPRPRPRPGLSPRP,0.795
4,RRIRMRPPRLPRPRPRPGMCPRP,0.19
5,RRIRMRPPRLPRPRPRPGNHPRP,-0.0526
6,RRIRMRPPRLPRPRPRPGPIPRP,0.115
7,RRIRMRPPRLPRPRPRPGQNPRP,0.0316
8,RRIRMRPPRLPRPRPRPGRFPRP,0.0931
9,RRIRMRPPRLPRPRPRPGRRPRP,0.724
10,RRIRMRPPRLPRPRPRPGSYPRP,0.124
11,RRIRMRPPRLPRPRPRPGTPPRP,1.02
12,RRIRMRPPRLPRPRPRPGVCPRP,0.535
13,RRIRMRPPRLPRPRPRPGVHPRP,0.0493
14,RRIRMRPPRLPRPRPRPGWSPRP,0.548
15,RRIRMRPPRLPRPRPRPGYMPRP,0.0502
16,RRIRMRPPRLPRPRPRPHCFPRP,-0.0715
17,RRIRMRPPRLPRPRPRPHCIPRP,-0.0281
18,RRIRMRPPRLPRPRPRPHCVPRP,0.0437
19,RRIRMRPPRLPRPRPRPHDFPRP,0.143
20,RRIRMRPPRLPRPRPRPHDKPRP,0.0701
21,RRIRMRPPRLPRPRPRPHGAPRP,0.0098
22,RRIRMRPPRLPRPRPRPHKDPRP,-0.0811
23,RRIRMRPPRLPRPRPRPHLTPRP,-0.0375
24,RRIRMRPPRLPRPRPRPHNSPRP,-0.171
25,RRIRMRPPRLPRPRPRPHNVPRP,0.0515

row,Sequence,shrunken log2 fold change
1,RRIRMRPPRLPRPRPRPHQEPRP,0.018
2,RRIRMRPPRLPRPRPRPHQPPRP,0.0274
3,RRIRMRPPRLPRPRPRPHRIPRP,0.0956
4,RRIRMRPPRLPRPRPRPHSKPRP,-0.0418
5,RRIRMRPPRLPRPRPRPHTCPRP,-0.0858
6,RRIRMRPPRLPRPRPRPHTVPRP,-0.0708
7,RRIRMRPPRLPRPRPRPHVLPRP,-0.00145
8,RRIRMRPPRLPRPRPRPHWDPRP,-0.145
9,RRIRMRPPRLPRPRPRPHWKPRP,0.0142
10,RRIRMRPPRLPRPRPRPHYPPRP,-0.303
11,RRIRMRPPRLPRPRPRPIATPRP,-0.0165
12,RRIRMRPPRLPRPRPRPIAWPRP,0.201
13,RRIRMRPPRLPRPRPRPICCPRP,-0.00414
14,RRIRMRPPRLPRPRPRPICKPRP,-0.0206
15,RRIRMRPPRLPRPRPRPICRPRP,0.297
16,RRIRMRPPRLPRPRPRPIDWPRP,0.483
17,RRIRMRPPRLPRPRPRPIGYPRP,-0.0789
18,RRIRMRPPRLPRPRPRPIHYPRP,-0.689
19,RRIRMRPPRLPRPRPRPIIGPRP,-0.00776
20,RRIRMRPPRLPRPRPRPIIKPRP,-0.265
21,RRIRMRPPRLPRPRPRPIPCPRP,0.02
22,RRIRMRPPRLPRPRPRPIPGPRP,0.105
23,RRIRMRPPRLPRPRPRPIQVPRP,-0.00663
24,RRIRMRPPRLPRPRPRPIRGPRP,-0.00871
25,RRIRMRPPRLPRPRPRPIRRPRP,-0.168
